The values below come from US20110293610A1 (published 2011).

What all share (test): phage ELISA
One experiment concerns the target T1, TNF-beta (human, UniProt P01374 35-205).
T1 construct: also called TNFβ; Tumour Necrosis Factor-beta
T1 sequence (looked up): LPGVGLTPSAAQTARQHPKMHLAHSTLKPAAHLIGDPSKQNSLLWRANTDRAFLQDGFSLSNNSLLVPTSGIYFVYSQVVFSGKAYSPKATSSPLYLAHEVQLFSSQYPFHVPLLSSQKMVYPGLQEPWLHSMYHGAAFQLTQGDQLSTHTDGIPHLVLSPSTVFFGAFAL

Another experiment addresses T2, TNF-alpha (human, UniProt P01375 77-233).
T2 construct: also called TNFα; TNF-α

For a further experiment, the target named is T3, TRAIL (human, UniProt P50591 114-281).
T3 construct: also called TNF-related apoptosis inducing ligand
T3 sequence (P50591 114-281 limits assumed): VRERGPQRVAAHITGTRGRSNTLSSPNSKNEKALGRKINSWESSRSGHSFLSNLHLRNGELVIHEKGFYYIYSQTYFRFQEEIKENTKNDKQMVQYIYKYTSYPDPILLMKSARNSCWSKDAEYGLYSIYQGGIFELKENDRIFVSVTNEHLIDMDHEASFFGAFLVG

In experiment [1] the target is T4, B Lymphocyte Stimulator, soluble form (human) (human, UniProt Q9Y275 134-285, biotinylated with NHS-biotin where used as biotinylated B Lymphocyte Stimulator).
T4 construct: Coated on plastic, captured on streptavidin plates, amine-coupled to a CM5 chip or free in solution, depending on the assay; also called BLyS; immobilized B Lymphocyte Stimulator

For a further experiment, the target named is LIGHT (human, UniProt O43557 74-240, limits assumed).
Chain of LIGHT (O43557 74-240 limits assumed): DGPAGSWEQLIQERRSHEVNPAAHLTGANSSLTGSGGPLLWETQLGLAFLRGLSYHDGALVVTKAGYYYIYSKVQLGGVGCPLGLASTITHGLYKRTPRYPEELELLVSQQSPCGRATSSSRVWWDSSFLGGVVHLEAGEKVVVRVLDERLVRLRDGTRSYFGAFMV

T2 sequence (P01375 77-233 limits assumed): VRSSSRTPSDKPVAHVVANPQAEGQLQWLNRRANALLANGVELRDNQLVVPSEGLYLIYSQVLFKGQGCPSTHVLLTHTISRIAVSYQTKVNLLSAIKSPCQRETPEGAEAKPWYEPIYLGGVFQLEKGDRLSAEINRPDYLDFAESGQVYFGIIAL

B1: I065F08 (scFv)
scFv: QVQLQQSGAEVKKPGSSVKVSCKASGDTFSSFGISWVRQVPGQGLEWMGAIIPKFDIVTYAEEFKGRVTISADKLTNTAYMEVKSLRSEDTAVYYCTREKSAAGYFDYWGKGTLVTVSSGGGGSGGGGSGGGGSDIVMTQSPSTLSASVGDRVTITCRASQGISSWLAWYQQKPGRAPKVLIYKASTLESGVPSRFSGSGSGTDFTLTISSLQPEDFATYYCQQSYSTPWTFGQGTKLEIKR
Consider B1, for which the binding result is “no binding” with TNF-beta; “no binding” with TNF-alpha; “no binding” with TRAIL; “binds” in experiment [1]; “no binding” with LIGHT.

B2: I075G01 (scFv)
scFv: QVQLVQSGAEVKKPGASVKVSCKTSGYTFTGYNINWVRQAPGQGLEWMGWVSPSNGDTSYAQTFQGRVTMTRDTSISTAYMELSSLKSDDTAVYYCARDHFDTLTGYFRRLDSWGQGTLVTVSSGGGGSGGGGSGGGGSALSSELTQDPEVSVALGQTVTITCQGDSLITHYASWFQQKPGQAPLLVFYSKDKRPSGIPDRFSGSYSGNTASLTITGAQAEDEADYYCNSRDSRGKNHVAFGGGTKLTVLG
Consider B2, for which the binding result was “no binding” with TNF-beta; “no binding” with TNF-alpha; “no binding” with TRAIL; “binds” in experiment [1]; “no binding” in the experiment with LIGHT.

B3: I067B10 (scFv)
scFv: QMQLVQSGAEVKKPGASVKVSCKASGYTFTSYYMHWVRQAPGQGLEWMGWINAGNSNTKYSQKFQGRVTITSDTSASTAYMELSGLRSEDTAVYYCARDRGAPNYDILTGYYAPAQGVAFDIWGKGTLATVSSGGGGSGGGGSGGGGSQSVLTQPPSVSAAPGQKVTISCSGSTSNIGNNYVSWYQQHPGKAPKLMIYDVSKRPSGVPDRFSGSKSGNSASLDISGLQSEDEADYYCAAWDDSLSEFLFGTGTKLTVLG
As for B3, the binding result is reported as “no binding” in the experiment with TNF-beta; “no binding” with TNF-alpha; “no binding” in the experiment with TRAIL; “binds” in experiment [1]; “no binding” with LIGHT.

B4: I065D08 (scFv)
scFv: GVQLVQSGAEVKKPGASVKVSCKASGYTFTSYGISWVRQAPGQGLEWMGWISAYNGNTNYAQKLQGRVTMTTDTSTSTAYMELRSLRSDDTAVYYCARTPSSVYDLLTGYYHYFYSYMDVWGRGTMVTVSSGGGGSGGGGSGGGGSQSVLTQPASVSGSPGQSITISCTGTSSDVGGYNYVSWYQQHPGEAPKLMIYEGSKRPSGVSNRFSGSKSGNTASLTISGLQAEDEADYYCSSYTTRSTRVFGGGTKLTVLG
For the molecule B4, the binding result is listed as “no binding” with TNF-beta; “no binding” with TNF-alpha; “no binding” in the experiment with TRAIL; “binds” in experiment [1]; “no binding” in the experiment with LIGHT.

B5: I064C07 (scFv)
scFv: QVQLVQSGAEVKKPGSSVKVSCKASGGTFSSYAISWVRQAPGQGLEWMGGIIPIFGTANYAQKFQGRVTITADDLTRTAYMEMSSLKFEDTAVYYCASSEGTIFGVDWGRGTLVTVSSGGGGSGGGGSGGGGSDIQMTQSPSFLSASVGDRVTITCRASQGINNYLAWYQQKPGRAPKLLMYAASSLQSGVPSRFSGSGSGTDFTLTISSLQPEDFATYYCLQDSDYPLTFGGGTKLEIKR
Consider B5, for which the binding result is reported as “no binding” with TNF-beta; “no binding” with TNF-alpha; “no binding” with TRAIL; “binds” in experiment [1]; “no binding” in the experiment with LIGHT.

B6: I078D08 (scFv)
scFv: QVNLRESGGGLVQPGGSLRLSCAASGFTFSSYWMSWVRQAPGKGLEWVANIKQDGSEKYYVDSVKGRFTISRDNSKNTLYLQMNSLRAEDTAVYYCARDAQSYYDILTGYQSYAFDIWGQGTTVTVSSGGGGSGGGGSGGGGSSELTQDPAVSVALGQTVRITCQGDSLRSYYTNWFQQKPGQAPLLVVYAKNKRPSGIPDRFSGSSSGNTASLTITGAQAEDEADYYCHSRDSSGNHVLFGGGTKLTVLG
In the case of B6, the binding result in the experiment with TNF-beta is “no binding”; with TNF-alpha it was “no binding”; with TRAIL, “no binding”; in experiment [1], “binds”; in the experiment with LIGHT it was “no binding”.

B7: I065D04 (scFv)
scFv: QVQLQESGPGLVKPSETLSLTCTVSGGSISSGYYWGWVRQPPGQGLEWIGSIYHSGSTYHNPSLKSRVTISMDTSKNQFSLNLNSVTAADTAVYYCARGKGYYDILTGYYRDNWFDPWGRGTLVTVSSGGGGSGGGGSGGGGSQSVLTQPASVSGSPGQSITISCTGTSSDVGGYNYVSWYQQHPGKAPKLMIYEGSKRPSGVSNRFSGSKSGNTASLTISGLQAEDEADYYCSSYTTRSTRVFGGGTKLTVLG
Regarding B7, the binding result with TNF-beta is reported as “no binding”; with TNF-alpha it was “no binding”; with TRAIL, “no binding”; in experiment [1], “binds”; with LIGHT it was “no binding”.

B8: I064C04 (scFv)
scFv: QVQLVQSGAEVKKPGASVKVSCEASGYTFTSYGISWVRQAPGQGLEWMGWISTYNGNTRYPQKLQGRVTMTTDTSTSTAYMDLRSLRSDDTAVYYCARDGRLSYDILTGYYARDYYGMDDWGRGTMVTVSSGGGGSGGGGSGGGGSQSVLTQPASVSGSPGQSITISCTGTSSDVGGYNYVSWYQQHPGKAPKLMIYEGSKRPSGVSNRFSGSKSGNTASLTISGLQAEDEADYYCSSYTTRSTRVFGGGTKLTVLG
B8: the binding result is on record as “no binding” in the experiment with TNF-beta; “no binding” in the experiment with TNF-alpha; “no binding” with TRAIL; “binds” in experiment [1]; “no binding” with LIGHT.

B9: I073F04 (scFv)
scFv: QVQLQQSGAEVKKPGSSVKVSCKASGGTFRSYAFSWVRQAPGQGLEWMGYIVPVFGTATYAQNFQGRVTITADELTTTAFMELSSLTSEDTAVYYCARSLATRPLGMDVWGRGTTVTVSSGGGGSGGGGSGGGGSQSVLTQPASVSGSPGQSITISCTGTSSDVGGYNYVSWYQQHPGKAPKLMIYEGSKRPSGVSNRFSGSKSGNTASLTISGLQAEDEADYYCSSYTTRSTRVFGGGTKLTVLG
B9: the binding result is reported as “no binding” with TNF-beta; “no binding” with TNF-alpha; “no binding” with TRAIL; “binds” in experiment [1]; “no binding” with LIGHT.

B10: I072B09 (scFv)
scFv: QVQLQQSGAEVKKPGASVKVSCRASGYTFTKYTMHWVRQAPGQGPEWMGWINGGSGDTKYSRKFQGRVTITKDTSASAAYMELSSLGSEDTALYYCARATYDPLTGYSFDGFDIWGQGTLVTVSSGGGGSGGGGSGGGGSSELTQDPAVSVALGQTVRITCQGDSLRSYYTNWFQQKPGQAPLLVVYAKNKRPSGIPDRFSGSSSGNTASLTITGAQAEDEADYYCNSRDSSGNHVVFGGGTKLTVLD
As for B10, the binding result with TNF-beta is reported as “no binding”; in the experiment with TNF-alpha, “no binding”; with TRAIL, “no binding”; in experiment [1], “binds”; with LIGHT, “no binding”.
